This note sets out measurements from IntAct's records for PubMed 31515488.

The chains are these.
B1: Nuclear pore glycoprotein p62 (Homo sapiens), P37198 (parent)
chain: MSGFNFGGTGAPTGGFTFGTAKTATTTPATGFSFSTSGTGGFNFGAPFQPATSTPSTGLFSLATQTPATQTTGFTFGTATLASGGTGFSLGIGASKLNLSNTAATPAMANPSGFGLGSSNLTNAISSTVTSSQGTAPTGFVFGPSTTSVAPATTSGGFSFTGGSTAQPSGFNIGSAGNSAQPTAPATLPFTPATPAATTAGATQPAAPTPTATITSTGPSLFASIATAPTSSATTGLSLCTPVTTAGAPTAGTQGFSLKAPGAASGTSTTTSTAATATATTTSSSSTTGFALNLKPLAPAGIPSNTAAAVTAPPGPGAAAGAAASSAMTYAQLESLINKWSLELEDQERHFLQQATQVNAWDRTLIENGEKITSLHREVEKVKLDQKRLDQELDFILSQQKELEDLLSPLEELVKEQSGTIYLQHADEEREKTYKLAENIDAQLKRMAQDLKDIIEHLNTSGAPADTSDPLQQICKILNAHMDSLQWIDQNSALLQRKVEEVTKVCEGRRKEQERSFRITFD
B2: Keratin, type I cytoskeletal 18 (Homo sapiens), P05783 (parent)
chain: MSFTTRSTFSTNYRSLGSVQAPSYGARPVSSAASVYAGAGGSGSRISVSRSTSFRGGMGSGGLATGIAGGLAGMGGIQNEKETMQSLNDRLASYLDRVRSLETENRRLESKIREHLEKKGPQVRDWSHYFKIIEDLRAQIFANTVDNARIVLQIDNARLAADDFRVKYETELAMRQSVENDIHGLRKVIDDTNITRLQLETEIEALKEELLFMKKNHEEEVKGLQAQIASSGLTVEVDAPKSQDLAKIMADIRAQYDELARKNREELDKYWSQQIEESTTVVTTQSAEVGAAETTLTELRRTVQSLEIDLDSMRNLKASLENSLREVEARYALQMEQLNGILLHLESELAQTRAEGQRQAQEYEALLNIKVKLEAEIATYRRLLEDGEDFNLGDALDSSNSMQTIQKTTTRRIVDGKVVSETNDTKVLRH
B3: E3 ubiquitin-protein ligase TRIM32 (Homo sapiens), Q13049 (parent)
chain: MAAAAASHLNLDALREVLECPICMESFTEEQLRPKLLHCGHTICRQCLEKLLASSINGVRCPFCSKITRITSLTQLTDNLTVLKIIDTAGLSEAVGLLMCRSCGRRLPRQFCRSCGLVLCEPCREADHQPPGHCTLPVKEAAEERRRDFGEKLTRLRELMGELQRRKAALEGVSKDLQARYKAVLQEYGHEERRVQDELARSRKFFTGSLAEVEKSNSQVVEEQSYLLNIAEVQAVSRCDYFLAKIKQADVALLEETADEEEPELTASLPRELTLQDVELLKVGHVGPLQIGQAVKKPRTVNVEDSWAMEATASAASTSVTFREMDMSPEEVVASPRASPAKQRGPEAASNIQQCLFLKKMGAKGSTPGMFNLPVSLYVTSQGEVLVADRGNYRIQVFTRKGFLKEIRRSPSGIDSFVLSFLGADLPNLTPLSVAMNCQGLIGVTDSYDNSLKVYTLDGHCVACHRSQLSKPWGITALPSGQFVVTDVEGGKLWCFTVDRGSGVVKYSCLCSAVRPKFVTCDAEGTVYFTQGLGLNLENRQNEHHLEGGFSIGSVGPDGQLGRQISHFFSENEDFRCIAGMCVDARGDLIVADSSRKEILHFPKGGGYSVLIREGLTCPVGIALTPKGQLLVLDCWDHCIKIYSYHLRRYSTP
B4: "Dol-P-Man:Man(5)GlcNAc(2)-PP-Dol alpha-1,3-mannosyltransferase" (Homo sapiens), Q92685 (parent)
chain: MAAGLRKRGRSGSAAQAEGLCKQWLQRAWQERRLLLREPRYTLLVAACLCLAEVGITFWVIHRVAYTEIDWKAYMAEVEGVINGTYDYTQLQGDTGPLVYPAGFVYIFMGLYYATSRGTDIRMAQNIFAVLYLATLLLVFLIYHQTCKVPPFVFFFMCCASYRVHSIFVLRLFNDPVAMVLLFLSINLLLAQRWGWGCCFFSLAVSVKMNVLLFAPGLLFLLLTQFGFRGALPKLGICAGLQVVLGLPFLLENPSGYLSRSFDLGRQFLFHWTVNWRFLPEALFLHRAFHLALLTAHLTLLLLFALCRWHRTGESILSLLRDPSKRKVPPQPLTPNQIVSTLFTSNFIGICFSRSLHYQFYVWYFHTLPYLLWAMPARWLTHLLRLLVLGLIELSWNTYPSTSCSSAALHICHAVILLQLWLGPQPFPKSTQHSKKAH
partner: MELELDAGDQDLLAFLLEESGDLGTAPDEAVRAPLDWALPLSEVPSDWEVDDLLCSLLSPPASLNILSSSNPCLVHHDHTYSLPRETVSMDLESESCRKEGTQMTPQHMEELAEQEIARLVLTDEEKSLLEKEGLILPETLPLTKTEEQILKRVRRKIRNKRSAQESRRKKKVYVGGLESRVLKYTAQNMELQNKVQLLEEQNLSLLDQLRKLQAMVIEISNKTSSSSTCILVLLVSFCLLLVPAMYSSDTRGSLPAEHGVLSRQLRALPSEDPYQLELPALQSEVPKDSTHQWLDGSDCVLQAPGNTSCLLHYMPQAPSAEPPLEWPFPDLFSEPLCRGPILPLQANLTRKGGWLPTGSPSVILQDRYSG
B5: pre-mRNA splicing regulator USH1G (Homo sapiens), Q495M9 (parent)
chain: MNDQYHRAARDGYLELLKEATRKELNAPDEDGMTPTLWAAYHGNLESLRLIVSRGGDPDKCDIWGNTPLHLAASNGHLHCLSFLVSFGANIWCLDNDYHTPLDMAAMKGHMECVRYLDSIAAKQSSLNPKLVGKLKDKAFREAERRIRECAKLQRRHHERMERRYRRELAERSDTLSFSSLTSSTLSRRLQHLALGSHLPYSQATLHGTARGKTKMQKKLERRKQGGEGTFKVSEDGRKSARSLSGLQLGSDVMFVRQGTYANPKEWGRAPLRDMFLSDEDSVSRATLAAEPAHSEVSTDSGHDSLFTRPGLGTMVFRRNYLSSGLHGLGREDGGLDGVGAPRGRLQSSPSLDDDSLGSANSLQDRSCGEELPWDELDLGLDEDLEPETSPLETFLASLHMEDFAALLRQEKIDLEALMLCSDLDLRSISVPLGPRKKILGAVRRRRQAMERPPALEDTEL
partner: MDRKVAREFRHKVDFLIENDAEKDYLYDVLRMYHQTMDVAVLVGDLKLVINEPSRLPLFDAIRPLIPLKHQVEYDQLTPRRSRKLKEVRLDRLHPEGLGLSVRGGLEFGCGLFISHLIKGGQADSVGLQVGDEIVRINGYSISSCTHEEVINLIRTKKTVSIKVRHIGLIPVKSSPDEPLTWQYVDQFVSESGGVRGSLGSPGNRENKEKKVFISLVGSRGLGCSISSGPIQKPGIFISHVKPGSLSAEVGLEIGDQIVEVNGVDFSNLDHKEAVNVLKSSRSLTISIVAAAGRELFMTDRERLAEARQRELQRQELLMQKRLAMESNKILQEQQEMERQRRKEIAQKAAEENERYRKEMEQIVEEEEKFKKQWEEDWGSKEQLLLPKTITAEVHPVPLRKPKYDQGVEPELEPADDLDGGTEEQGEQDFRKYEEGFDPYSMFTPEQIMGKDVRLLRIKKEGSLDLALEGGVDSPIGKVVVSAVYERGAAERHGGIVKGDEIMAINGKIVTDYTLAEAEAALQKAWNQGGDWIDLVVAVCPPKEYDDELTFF

In one experiment the parent is B1. As to conditions: with nup58_human NUP58, Q9BVL2.
Sequence of nup58_human NUP58, Q9BVL2 (Q9BVL2 whole entry): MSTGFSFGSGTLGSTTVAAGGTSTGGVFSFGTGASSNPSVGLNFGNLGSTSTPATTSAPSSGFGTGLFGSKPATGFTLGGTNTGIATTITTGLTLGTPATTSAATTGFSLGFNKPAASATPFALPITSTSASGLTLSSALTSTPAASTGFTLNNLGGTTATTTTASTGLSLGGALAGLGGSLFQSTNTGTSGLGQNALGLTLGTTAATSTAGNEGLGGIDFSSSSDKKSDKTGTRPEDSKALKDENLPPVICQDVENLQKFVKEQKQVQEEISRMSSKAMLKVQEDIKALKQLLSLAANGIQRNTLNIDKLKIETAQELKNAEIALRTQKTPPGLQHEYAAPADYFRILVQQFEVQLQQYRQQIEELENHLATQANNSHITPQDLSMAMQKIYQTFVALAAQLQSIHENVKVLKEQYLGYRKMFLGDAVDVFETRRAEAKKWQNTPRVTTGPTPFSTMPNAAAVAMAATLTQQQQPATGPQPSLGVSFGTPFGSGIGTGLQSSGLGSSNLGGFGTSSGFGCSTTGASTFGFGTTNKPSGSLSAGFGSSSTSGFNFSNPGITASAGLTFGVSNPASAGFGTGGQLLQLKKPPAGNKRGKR
Consider A279T, for which the “effect of a mutation on the interaction” value is on record as “with no effect”.

In a further experiment the parent is B1. As to conditions: with hsf2_human HSF2, Q03933.
Sequence of hsf2_human HSF2, Q03933 (Q03933 whole entry): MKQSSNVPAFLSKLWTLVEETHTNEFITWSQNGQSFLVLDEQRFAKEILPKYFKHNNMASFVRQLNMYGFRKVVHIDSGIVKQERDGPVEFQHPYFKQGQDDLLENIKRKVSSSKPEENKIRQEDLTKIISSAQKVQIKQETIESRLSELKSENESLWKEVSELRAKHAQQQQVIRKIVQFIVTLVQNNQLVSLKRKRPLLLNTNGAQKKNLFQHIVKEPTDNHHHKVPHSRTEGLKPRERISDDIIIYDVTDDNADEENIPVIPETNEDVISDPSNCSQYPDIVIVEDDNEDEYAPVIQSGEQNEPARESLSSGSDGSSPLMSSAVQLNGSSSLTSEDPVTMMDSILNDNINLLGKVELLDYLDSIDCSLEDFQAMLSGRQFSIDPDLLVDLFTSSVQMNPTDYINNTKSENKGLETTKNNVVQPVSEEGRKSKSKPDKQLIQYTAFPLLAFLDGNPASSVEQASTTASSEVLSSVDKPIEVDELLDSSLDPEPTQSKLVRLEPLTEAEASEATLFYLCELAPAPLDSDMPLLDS
Take A279T: the “effect of a mutation on the interaction” value is “with no effect”.

A further experiment covers variants of B1. The following applies: with ntf2_human NUTF2, P61970.
Sequence of ntf2_human NUTF2, P61970 (P61970 whole entry): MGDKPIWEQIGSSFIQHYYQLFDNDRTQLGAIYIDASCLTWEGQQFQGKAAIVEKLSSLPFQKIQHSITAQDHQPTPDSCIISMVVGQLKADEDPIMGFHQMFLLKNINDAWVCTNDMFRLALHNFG
In the case of A279T, the “effect of a mutation on the interaction” value is given as “with no effect”.

In the next experiment the parent is B1. As to conditions: with abi2_human ABI2, Q9NYB9.
Target sequence in this assay (Q9NYB9 whole entry): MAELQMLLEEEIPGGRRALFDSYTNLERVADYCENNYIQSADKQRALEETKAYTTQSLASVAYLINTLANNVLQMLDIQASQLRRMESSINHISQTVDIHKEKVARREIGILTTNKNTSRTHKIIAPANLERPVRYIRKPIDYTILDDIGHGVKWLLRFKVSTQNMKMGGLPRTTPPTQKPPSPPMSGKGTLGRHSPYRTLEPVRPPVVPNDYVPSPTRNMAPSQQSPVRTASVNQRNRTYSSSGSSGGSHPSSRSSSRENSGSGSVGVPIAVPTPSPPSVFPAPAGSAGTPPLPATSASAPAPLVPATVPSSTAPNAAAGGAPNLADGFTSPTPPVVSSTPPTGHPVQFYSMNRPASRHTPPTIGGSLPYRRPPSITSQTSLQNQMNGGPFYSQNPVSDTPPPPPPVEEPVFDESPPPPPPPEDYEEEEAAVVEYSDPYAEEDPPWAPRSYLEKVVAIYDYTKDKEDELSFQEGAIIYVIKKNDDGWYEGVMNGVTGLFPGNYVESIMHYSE
A279T: the “effect of a mutation on the interaction” value is “with no effect”.

The variants in another experiment derive from B2. The following applies: with KRT15, P19012.
Sequence of KRT15, P19012 (P19012 whole entry): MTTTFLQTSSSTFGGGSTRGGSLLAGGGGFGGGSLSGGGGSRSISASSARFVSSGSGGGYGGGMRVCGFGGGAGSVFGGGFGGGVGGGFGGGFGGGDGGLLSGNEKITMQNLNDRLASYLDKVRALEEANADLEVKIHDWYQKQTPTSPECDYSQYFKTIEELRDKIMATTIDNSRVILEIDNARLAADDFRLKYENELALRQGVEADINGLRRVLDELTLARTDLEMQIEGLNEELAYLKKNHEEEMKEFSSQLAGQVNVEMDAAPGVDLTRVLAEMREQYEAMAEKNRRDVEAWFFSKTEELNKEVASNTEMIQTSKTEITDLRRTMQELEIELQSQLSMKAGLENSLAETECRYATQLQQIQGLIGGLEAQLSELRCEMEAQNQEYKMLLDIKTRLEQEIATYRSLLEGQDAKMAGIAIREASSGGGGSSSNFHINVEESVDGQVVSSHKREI
On to I150V, for which the “effect of a mutation on the interaction” value is recorded as “with no effect”.

Variants of B3 are the subject of another experiment. The following applies: with abi2_human ABI2, Q9NYB9.
Target sequence in this assay (Q9NYB9 whole entry): as the sequence (Q9NYB9 whole entry) above
As to E547A, the “effect of a mutation on the interaction” value is listed as “disrupting interaction strength”.

Variants of B3 are the subject of the next experiment. The following applies: with pde9a_human PDE9A.
E547A: the “effect of a mutation on the interaction” value was “disrupting interaction strength”.

Variants of B3 are the subject of another experiment. As to conditions: with sdcb1_human SDCBP.
As for E547A, the “effect of a mutation on the interaction” value is given as “disrupting interaction strength”.

In a further experiment the parent is B4. The following applies: with creb3_human CREB3, O43889.
On to I107V, for which the “effect of a mutation on the interaction” value is on record as “with no effect”.

The variants in the next experiment derive from B5. As to conditions: with ush1c_human USH1C.
As to E393D, the “effect of a mutation on the interaction” value is “with no effect”.
Regarding L48P, the “effect of a mutation on the interaction” value is recorded as “with no effect”.
As for L16V, the “effect of a mutation on the interaction” value is on record as “with no effect”.
